B1: 4QI-TBA-E (structured_DNA)
DNA: GGTTGGTGTGGTTGGT
modifications: 5'-4QI merocyanine end-label; extra 3' dT
B2: 4QI-TBA-E:TBA-C9 duplex (dsDNA)
DNA 1: GGTTGGTGTGGTTGGT
DNA 2: ACACCAACC
modifications: 5'-4QI on aptamer strand; extra 3' dT

Legend:
thrombin [1] = molecular target: T1, thrombin (Bos taurus, UniProt P00735;P00735 P00735:318-366,P00735:367-625); assay: FP; K+ phosphate buffer pH 7.0, 20 C; Table 6 lists 1.5±0.3 uM; conditions: tags: bovine thrombin dry powder, Sigma Aldrich; label: 5'-4QI; antiparallel G4
thrombin [2] = molecular target: T1, thrombin; assay: FP; K+ phosphate buffer pH 7.0; duplex to G4 exchange, 36% fluorescence increase; conditions: tags: bovine thrombin dry powder, Sigma Aldrich; label: 5'-4QI; partial duplex with 9-mer complement, 3' ssDNA

Binder | Kd (thrombin [1]) [nM] | Kd (thrombin [2]) [nM]
B1 | 1100 | 
B2 |  | 1300

From patent US20200378979, “FLUORESCENT MEROCYANINE DYES, ASSOCIATED CONJUGATES AND METHODS” (University of Guelph, published 2020)
